The values that follow come from patent publication US20260092115A1 (Chugai, published 2026).

B1: 04H1654-KT461/04L1610-lam1//04H1656-HT443/04L1610-lam1 (antibody, human IgG1, lambda)
heavy 1: QVQLVESGGGVVQPGGSLRLSCAASGFTFSSKTMNWVRQAPGKGLEWVSSISTQSHYIYYARSVRGRFTISRDNAKNSLYLQMNSLRAEDTAVYYCARYGKREDMLWVFDYWGQGTLVTVSSASTKGPSVFPLAPSSKSTSGGTAALGCLVKDYFPEPVTVSWNSGALTSGVHTFPAVLQSSGLYSLSSVVTVPSSSLGTQTYICNVNHKPSNTKVDKRVEPKSCDKTHTCPPCPAPEFQWGPMVFLFPPKPKDVLMISRTPEVTCVVVDVSDEEPEVKFNWYVDGVEVHNAKTKPREEQYNATYRVVSVLPVLHQDWLNGKEYKCKVSNDALPAPEEKTISKAKGQPREPQVYTLPPSRKEMTKNQVSLTCLVKGFYPSDIAVEWESNGQPENNYKTTPPVLDSDGSFFLYSKLTVDKSRWQQGNVFSCSVMHEALHNHYTQKSLSLSP
heavy 2: B1 heavy 1 with R62E, K101A, F239L, Q240L, W241A, M244S, D273H, K339E, K361E, K444E
light: QSALTQPPSASGSPGQSVTISCEGPSTGVGDYNWVHWYQQHPGKAPKLMIYFTSKKPSGVPDRFSGSKSGNTASLTVSGLQAEDEADYYCQTYAAPLGPMFGGGTKLTVLGQPKAAPSVTLFPPSSEELQANKATLVCLISDFYPGAVTVAWKADSSPVKAGVETTTPSKQSNNKYAASSYLSLTPEQWKSHRSYSCQVTHEGSTVEKTVAPTECS
notes: Heterodimerized IgG1 (IGHG1*03) Fc variant
B2: 04H1654-KT461/04L1612-lam1//04H1656-HT443/04L1612-lam1 (antibody, human IgG1, lambda)
heavy 1: B1 heavy 1
heavy 2: B1 heavy 1 with R62E, K101A, F239L, Q240L, W241A, M244S, D273H, K339E, K361E, K444E
light: B1 light with N33T, W34Y
notes: as for B1
B3: 04H1654-KT462/04L1612-lam1//04H1656-HT445/04L1612-lam1 (antibody, human IgG1, lambda)
heavy 1: B1 heavy 1 with E337I
heavy 2: QVQLVESGGGVVQPGGSLRLSCAASGFTFSSKTMNWVRQAPGKGLEWVSSISTQSHYIYYAESVRGRFTISRDNAKNSLYLQMNSLRAEDTAVYYCARYGAREDMLWVFDYWGQGTLVTVSSASTKGPSVFPLAPSSKSTSGGTAALGCLVKDYFPEPVTVSWNSGALTSGVHTFPAVLQSSGLYSLSSVVTVPSSSLGTQTYICNVNHKPSNTKVDKRVEPKSCDKTHTCPPCPAPELLAGPSVFLFPPKPKDVLMISRTPEVTCVVVDVSHEEPEVKFNWYVDGVEVHNAKTKPREEQYNATYRVVSVLPVLHQDWLNGKEYKCKVSNDALPKPDEETISKAKGQPREPQVYTLPPSREEMTKNQVSLTCLVKGFYPSDIAVEWESNGQPENNYKTTPPVLDSDGSFFLYSKLTVDKSRWQQGNVFSCSVMHEALHNHYTQESLSLSP
light: B1 light with N33T, W34Y
notes: as for B1
B4: 04H1654-KT473/04L1610-lam1//04H1656-HT482/04L1610-lam1 (antibody, IgG1)
heavy 1: B1 heavy 1 with E337I, N439A, Y441T, Q443R, S445E
heavy 2: B3 heavy 2 with N439A, Y441T, Q443R, S445E
light: B1 light
notes: Heterodimerized IgG1 Fc variant with N434A/Y436T/Q438R/S440E; also called SW1610-ART6+ACT1
B5: 04H1654-KT473/04L1612-lam1//04H1656-HT482/04L1612-lam1 (antibody, IgG1)
heavy 1: B1 heavy 1 with E337I, N439A, Y441T, Q443R, S445E
heavy 2: B3 heavy 2 with N439A, Y441T, Q443R, S445E
light: B1 light with N33T, W34Y
notes: Heterodimerized IgG1 Fc variant with N434A/Y436T/Q438R/S440E

Residue numbers refer to the chain shown, from its start. Numbers in names are those of the source.

T7 sequence (P55899 24-290 limits assumed, chain 1 of 2): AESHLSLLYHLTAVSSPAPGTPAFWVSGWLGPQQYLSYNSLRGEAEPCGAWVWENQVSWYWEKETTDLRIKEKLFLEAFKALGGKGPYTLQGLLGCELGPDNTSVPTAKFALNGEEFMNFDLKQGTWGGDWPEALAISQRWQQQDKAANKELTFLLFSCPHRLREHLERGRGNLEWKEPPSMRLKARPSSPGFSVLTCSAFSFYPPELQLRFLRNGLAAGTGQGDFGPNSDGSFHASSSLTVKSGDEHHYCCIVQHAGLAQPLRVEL
T7 sequence (P61769 21-119 limits assumed, chain 2 of 2): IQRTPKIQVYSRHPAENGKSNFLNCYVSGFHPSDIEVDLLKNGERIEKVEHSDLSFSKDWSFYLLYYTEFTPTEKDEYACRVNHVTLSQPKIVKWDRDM

In one assay the target is T1, human FcγRIIb extracellular domain, His-tagged (human, UniProt P31994 43-217).
T1 construct: extracellular domain; also called hFcγR IIb
T1 sequence (looked up): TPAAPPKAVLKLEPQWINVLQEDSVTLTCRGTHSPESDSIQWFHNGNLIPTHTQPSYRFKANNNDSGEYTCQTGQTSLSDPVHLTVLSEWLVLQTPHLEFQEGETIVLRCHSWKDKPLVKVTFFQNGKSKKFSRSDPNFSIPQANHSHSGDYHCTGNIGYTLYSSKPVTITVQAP
Nature of the assay: binding amount of this antibody divided by that of 04H1637-G1m/04L1610-lam1; SPR pH 7.4. How it is done: (§1) The interaction between the generated antibodies and human FcγRs was analyzed by the following method using Biacore T200. 50 mM Na-Phosphate, 150 mM NaCl, 0.05% Tween20 (pH 7.4) was used as the running buffer, and the assay was performed at 25° C. For the sensor chips, Series S SA (GE Healthcare) chips onto which CaptureSelect Human Fab-lambda Kinetics Biotin Conjugate (Thermo Fisher Scientific) was immobilized were used. The antibodies of interest were captured onto these chips and each FcγR diluted in the running buffer was allowed to interact with them. Chips were regenerated with 10 mM Glycine-HCl (pH 1.5) and 25 mM NaOH, and assay was performed by repeatedly capturing antibodies. The dissociation constants KD (mol/L) for FcγRs of each antibody were calculated using Biacore T200 Evaluation Software 2.0, using the 1:1 Langmuir binding model for FcγRIa and FcγRIIIa and the steady state affinity model for FcγRIIa. For FcγRIIb, the binding amount of FcγRIIb per unit amount of antibody was calculated by correcting the binding amount of FcγRIIb obtained from the sensorgram obtained by the measurement with the amount of antibody captured onto the chip surface.
(§2) “Relative value to KD between G1m and hFcRn” and “Relative value to KD between G1m and hFcγRs” are values obtained by dividing the KD value of 04H1637-G1m/04L1610-lam1 for hFcRn and for each FcγR by the KD value of each variant, respectively. “Relative binding amount” indicates the value obtained by dividing the binding amount of each variant to FcγRIIb by the binding amount of 04H1637-G1m/04L1610-lam1. […] It was shown that all of the generated heterodimerized antibodies had enhanced binding to FcγRIIa and FcγRIIIa as compared with 04H1637-G1m/04L1610-lam1 which has the constant region of native human IgG1.
Regarding B1, the Relative binding amount stood at 3.1 ratio.

The molecule B2 had a Relative binding amount of 3.1 ratio.

As for B3, the Relative binding amount was 3.4 ratio.

In the case of B4, the Relative binding amount came to 3.2 ratio.

As for B5, the Relative binding amount was 3.2 ratio.

The target of the next assay is T1, human FcγRIIb extracellular domain, …. Nature of the assay: SPR Biacore T200, 25C, pH 7.4; FcγRIIb at 1000 nM, corrected by captured antibody. On the procedure:
as §1
For B1, the Binding amount was 0.025 RU per RU of captured antibody.

Regarding B2, the Binding amount is 0.025 RU per RU of captured antibody.

For B3, the Binding amount was 0.028 RU per RU of captured antibody.

For B4, the Binding amount was 0.026 RU per RU of captured antibody.

Consider B5, for which the Binding amount was 0.026 RU per RU of captured antibody.

A further assay deals with T2, human FcγRIIIa, allotype F158, extracellular domain, His-tagged (human, UniProt P08637 17-208).
T2 construct: extracellular domain; also called hFcγR IIIa F
T2 sequence (P08637 17-208): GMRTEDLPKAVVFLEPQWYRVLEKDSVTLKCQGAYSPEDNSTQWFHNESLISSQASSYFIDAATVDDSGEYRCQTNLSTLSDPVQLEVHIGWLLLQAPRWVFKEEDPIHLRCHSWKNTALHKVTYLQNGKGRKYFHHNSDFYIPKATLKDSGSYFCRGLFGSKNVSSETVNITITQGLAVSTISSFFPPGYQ
Nature of the assay: KD of 04H1637-G1m/04L1610-lam1 divided by KD of this antibody; SPR pH 7.4. How it is done:
as §1, §2
Regarding B1, the “Relative value to KD between G1m and hFcγRs” value came out at 526 ratio.

On to B2, for which the “Relative value to KD between G1m and hFcγRs” value stood at 537 ratio.

Consider B3, for which the “Relative value to KD between G1m and hFcγRs” value came to 408 ratio.

As for B4, the “Relative value to KD between G1m and hFcγRs” value was 363 ratio.

For the molecule B5, the “Relative value to KD between G1m and hFcγRs” value was 355 ratio.

In the next assay the target is T3, human FcγRIIa, type H, extracellular domain, His-tagged (human, UniProt P12318 34-217).
T3 construct: extracellular domain; also called hFcγR IIa H
T3 sequence (looked up): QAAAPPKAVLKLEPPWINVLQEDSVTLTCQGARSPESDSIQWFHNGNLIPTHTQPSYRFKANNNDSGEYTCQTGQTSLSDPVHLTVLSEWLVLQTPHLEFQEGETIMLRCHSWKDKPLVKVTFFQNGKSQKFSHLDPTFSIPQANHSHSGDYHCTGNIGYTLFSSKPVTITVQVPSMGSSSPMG
Described as above. How it is done: as §1, §2
In the case of B1, the “Relative value to KD between G1m and hFcγRs” value came out at 7.3 ratio.

For B2, the “Relative value to KD between G1m and hFcγRs” value was 7.1 ratio.

As to B3, the “Relative value to KD between G1m and hFcγRs” value came to 16.1 ratio.

In the case of B4, the “Relative value to KD between G1m and hFcγRs” value amounted to 18 ratio.

As to B5, the “Relative value to KD between G1m and hFcγRs” value came to 16.2 ratio.

In a further assay the target is T4, human FcγRIIa, type R, extracellular domain, His-tagged (human, UniProt P12318 34-217).
T4 construct: extracellular domain; also called hFcγR IIa R
T4 sequence (looked up): T3 sequence (looked up) with H134R
The assay is described as above. How it is done:
as §1, §2
As for B1, the “Relative value to KD between G1m and hFcγRs” value stood at 8.4 ratio.

For B2, the “Relative value to KD between G1m and hFcγRs” value amounted to 8.2 ratio.

In the case of B3, the “Relative value to KD between G1m and hFcγRs” value came out at 14.2 ratio.

With B4, the “Relative value to KD between G1m and hFcγRs” value was determined as 13.9 ratio.

Turning to B5, the “Relative value to KD between G1m and hFcγRs” value was 13.8 ratio.

In a further assay the target is T5, human FcγRIIIa, allotype V158, extracellular domain, His-tagged (human, UniProt P08637 17-208).
T5 construct: extracellular domain; also called hFcγR IIIa V
T5 sequence (P08637 17-208 F176V): as the sequence (P08637 17-208) above, with F160V counted along it
The assay is described as above. On the procedure:
as §1, §2
Take B1: the “Relative value to KD between G1m and hFcγRs” value is 156 ratio.

Regarding B2, the “Relative value to KD between G1m and hFcγRs” value came to 159 ratio.

B3: the “Relative value to KD between G1m and hFcγRs” value is 106 ratio.

In the case of B4, the “Relative value to KD between G1m and hFcγRs” value was found to be 115 ratio.

As to B5, the “Relative value to KD between G1m and hFcγRs” value stood at 110 ratio.

In the next assay the target is T6, human FcγRIa extracellular domain, His-tagged (human, UniProt P12314 16-292).
T6 construct: also called hFcγR Ia
T6 sequence (P12314 16-292): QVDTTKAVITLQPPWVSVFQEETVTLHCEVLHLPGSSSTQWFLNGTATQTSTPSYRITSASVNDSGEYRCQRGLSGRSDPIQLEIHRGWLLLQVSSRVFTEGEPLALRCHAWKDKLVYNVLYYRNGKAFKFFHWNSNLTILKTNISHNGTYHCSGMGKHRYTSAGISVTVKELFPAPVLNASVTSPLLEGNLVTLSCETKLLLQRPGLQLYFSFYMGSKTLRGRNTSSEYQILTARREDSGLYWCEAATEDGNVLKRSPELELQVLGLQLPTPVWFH
The description is as above. On the procedure: as §1, §2
As to B1, the “Relative value to KD between G1m and hFcγRs” value was 1.5 ratio.

For B2, the “Relative value to KD between G1m and hFcγRs” value came to 1.3 ratio.

Take B3: the “Relative value to KD between G1m and hFcγRs” value was 1.2 ratio.

For B4, the “Relative value to KD between G1m and hFcγRs” value is 1.1 ratio.

Turning to B5, the “Relative value to KD between G1m and hFcγRs” value is 1 ratio.

A further assay addresses T7, human FcRn (human, UniProt P55899 24-290; P61769 21-119).
T7 construct: Prepared by the method of WO 2010/107110; also called hFcRn
Nature of the assay: KD of 04H1637-G1m/04L1610-lam1 divided by KD of this antibody; SPR pH 6.0. How it is done:
The interaction between the generated antibodies and human FcRn was analyzed by the following method using Biacore T200. 50 mM Na-Phosphate, 150 mM NaCl, 0.05% Tween20 (pH 6.0) was used as the running buffer, and the assay was performed at 25° C. For the sensor chip, Series S SA (GE Healthcare) chips onto which CaptureSelect Human Fab-lambda Kinetics Biotin Conjugate (Thermo Fisher Scientific) was immobilized were used. The antibodies of interest were captured onto these chips and FcRn diluted in the running buffer was allowed to interact with them. Chips were regenerated with 10 mM Glycine-HCl (pH 1.5) and 25 mM NaOH, and assay was performed by repeatedly capturing antibodies. The dissociation constant for FcRn of each antibody was calculated using the steady state model, using Biacore T200 Evaluation Software 2.0.
“Relative value to KD between G1m and hFcRn” and “Relative value to KD between G1m and hFcγRs” are values obtained by dividing the KD value of 04H1637-G1m/04L1610-lam1 for hFcRn and for each FcγR by the KD value of each variant, respectively. “Relative binding amount” indicates the value obtained by dividing the binding amount of each variant to FcγRIIb by the binding amount of 04H1637-G1m/04L1610-lam1. […] It was shown that all of the generated heterodimerized antibodies had enhanced binding to FcγRIIa and FcγRIIIa as compared with 04H1637-G1m/04L1610-lam1 which has the constant region of native human IgG1. Furthermore, 04H1637-Kn462/04L1610-lam1//04H1637-H1441/04L1610-lam1, 04H1637-Kn462/04L1610-lam1//04H1637-H1445/04L1610-lam1, and 04H1637-Kn461/04L1610-lam1//04H1637-H1443/04L1610-lam1 were all shown to have enhanced binding to FcγRIIa compared to 04H1637-Kn125/04L1610-lam1//04H1637-H1076/04L1610-lam 1 which has the Fc region variant reported in WO 2013/002362.
In the case of B1, the “Relative value to KD between G1m and hFcRn” value came out at 0.9 ratio.

Consider B2, for which the “Relative value to KD between G1m and hFcRn” value is 0.8 ratio.

With B3, the “Relative value to KD between G1m and hFcRn” value came to 0.8 ratio.

In the case of B4, the “Relative value to KD between G1m and hFcRn” value stood at 2.3 ratio.

Regarding B5, the “Relative value to KD between G1m and hFcRn” value was found to be 2.1 ratio.
